According to patent US5834290:
Values belong to the binder of their own block, whether it stands above or below them.

What was measured:
[1] = target: T1, soybean trypsin inhibitor (SBTI), P01070; assay: affinity chromatography of KCl-extracts of plantar corneocytes on covalently linked soybean trypsin inhibitor
T1 chain: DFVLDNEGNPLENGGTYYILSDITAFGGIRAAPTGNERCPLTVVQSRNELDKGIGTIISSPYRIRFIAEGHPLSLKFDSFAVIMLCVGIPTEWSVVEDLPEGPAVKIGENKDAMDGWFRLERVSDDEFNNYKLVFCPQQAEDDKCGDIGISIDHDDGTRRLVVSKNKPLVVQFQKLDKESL

[2] = target: desmoglein I (DG I) (Homo sapiens (Human)) (UniProt Q02413)
desmoglein I (DG I) (Homo sapiens (Human)), sequence (Q02413 50-1049 limits assumed): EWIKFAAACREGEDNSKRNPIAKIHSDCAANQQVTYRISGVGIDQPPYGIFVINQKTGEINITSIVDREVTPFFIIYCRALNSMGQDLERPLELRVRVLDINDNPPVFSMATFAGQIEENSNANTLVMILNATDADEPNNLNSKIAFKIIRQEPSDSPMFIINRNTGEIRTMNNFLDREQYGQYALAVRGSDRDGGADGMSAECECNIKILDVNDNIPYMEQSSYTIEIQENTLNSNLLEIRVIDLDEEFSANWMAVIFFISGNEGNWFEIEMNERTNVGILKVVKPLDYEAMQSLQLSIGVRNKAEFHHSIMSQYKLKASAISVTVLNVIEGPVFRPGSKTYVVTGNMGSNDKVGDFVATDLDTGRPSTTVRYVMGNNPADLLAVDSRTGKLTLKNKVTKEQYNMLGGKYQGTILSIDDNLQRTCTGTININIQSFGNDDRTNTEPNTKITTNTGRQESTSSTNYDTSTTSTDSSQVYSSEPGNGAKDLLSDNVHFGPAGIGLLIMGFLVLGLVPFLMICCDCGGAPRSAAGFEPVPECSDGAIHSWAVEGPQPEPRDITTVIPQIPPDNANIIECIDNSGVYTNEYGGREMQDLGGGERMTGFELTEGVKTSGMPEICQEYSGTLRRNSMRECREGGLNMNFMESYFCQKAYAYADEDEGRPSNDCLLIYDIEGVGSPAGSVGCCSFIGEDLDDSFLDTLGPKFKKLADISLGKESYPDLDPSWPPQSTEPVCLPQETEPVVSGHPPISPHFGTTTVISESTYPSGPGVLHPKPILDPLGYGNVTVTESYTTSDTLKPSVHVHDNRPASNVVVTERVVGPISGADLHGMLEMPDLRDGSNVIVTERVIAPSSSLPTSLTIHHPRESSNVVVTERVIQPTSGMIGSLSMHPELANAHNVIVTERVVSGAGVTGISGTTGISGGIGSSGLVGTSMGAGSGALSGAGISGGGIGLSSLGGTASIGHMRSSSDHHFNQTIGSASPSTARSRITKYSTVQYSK

B1: stratum corneum chymotryptic enzyme (SCCE), native, from human plantar stratum corneum (protein)
chain: IIDGAPCARGSHPWQVALLSGNQLHCGGVLVNERWVLTAAHCKMNEYTVHLGSDTLGDRRAQRIKASKSFRHPGYSTQTHVNDLMLVKLNSQARLSSMVKKVRLPSRCEPPGTTCTVSGWGTTTSPDVTFPSDLMCVDVKLISPQDCTKVYKDLLENSMLCAGIPDSKKNACNGDSGGPLVCRGTLQGLVSWGTFPCGQPNDPGVYTQVCKFTKWINDTMKKHR
percent of the S-2586 hydrolyzing activity bound to the gel [1]: Approximately 90% of the S-2586 hydrolyzing activity was bound to the gel

levels of the desmosome marker protein desmoglein I after 24 hours at 37° C., DG I (arbitrary units/mg squames) (arbitrary units/mg squames) [2]: 4060
B2: recombinant SCCE, active (trypsin-activated recombinant SCCE of Example 10; rSCCE of Examples 12 and 13) (enzyme)
chain: B1 chain
